# Data from patent US7524646B2 (priority 2001, dated 2009).
# “Also recorded” adds a separate entry of the source.
# Assays:
# strain β5520 = test: Suppression of thymidine auxotrophy by S-carbamoyl-cysteine; type: cell-based, E. coli; settings: absence of thymidine, aerobic
# Protocol: One-step selection scheme. For the one-step selections, cysteine oxidation under aerobiosis and subsequent cystine precipitation from the growth medium was avoided by use of the non-oxidizable precursor S-carbamoyl-cysteine (Scc). Scc is a poor precursor of cysteine and sustains growth of a Cys-auxotrophic E. coli strain less efficiently than cysteine. However, at concentrations above 1 mM, Scc gave rise to suppression of the thymidine auxotrophy of strain β5520, while in the absence of thymidine no growth was detectable below 1 mM Scc. When β5419 cells bearing the thyA:Val146GUA allele on a high copy plasmid were plated on mineral glucose plates supplemented with Scc (3 mM), no colonies grew after prolonged incubation at 30° C. (The experiment was designed to detect a mutant at a frequency of 10^−10.) To increase the mutation frequency, a mutS::spc+ (33) mutator allele was introduced in the genetic background of strain β5419 by P1 transduction, yielding strain β5432 (the mutS::spc+ disruption disables the mismatch repair system and leads to random transitions and frameshifts (34)). Colonies then appeared on the same medium with a frequency of about 10^−8. No colonies were found on plates lacking Scc.
# parent strain β5419 = test: Growth of parent strain in the presence of L-threonine; type: cell-based, E. coli; settings: all concentrations
# Protocol: (§1) FIG. 1C: Photographs showing the results of growth of a strain carrying the valS:T222P allele in the presence of L-threonine or Abu. Minimal medium plates supplemented with thymidine (0.3 mM) were pretreated with amino acid solutions by streaking either with Thr (50 μl (0.2 M)) or Abu (50 μl (0.1 M)) vertically along the diameter of the plate to create an amino acid gradient. Mutant (β5456) and wild-type (β5419 (thyA::erm+ ΔnrdD::kan+ pTS13 (bla+ thyA: 146GUA)) strains were then streaked horizontally across the plates and incubated for 2 days at 37° C.
# (§2) ValRS is known to misactivate Thr and generate Thr-tRNA^Val, which normally is hydrolyzed by the ValRS editing activity (9). If the ValRS mutants in Table 1 are impared for editing, then strains bearing each of these mutations should misincoporate Thr into protein, and L-threonine would then be toxic in these strains. The growth of the five different valS strains was therefore tested in the presence of L-threonine.
# [1] = system: five different valS strains (editing mutants); type: cell-based, E. coli; settings: at 2 mM
# Protocol: as §1, §2
# [2] = system: strains bearing thyA:Val146 alleles; test: Cysteine suppression of thyA:Val146 alleles on gradient plates; type: cell-based, E. coli; settings: gradient starting at 100 mM L-cysteine, no thymidine
# Protocol: […] Ile-Val (0.3 mM) was added in one plate as a control. The dipeptide Ile-Val was purchased from Bachem A G (Bubendorf, Switzerland). Plates were incubated for 2 days at 30° C.
# We took advantage of the thyA conditional selection screen in E. coli, based on the absolute requirement for an active thymidylate synthase when thymidine is not provided as a growth factor (13). This same screen was used previously to assess the potency of suppressor Cys-tRNAs in codon misreading (14) and to enforce phenotypic suppression by the non-canonical azaleucine (15). An entire set of plasmid-borne thyA alleles with all 64 different codons at position 146 was constructed for altering the catalytic site occupied by an essential Cys (16, 17). Each allele was tested for its ability to restore growth to an E. coli strain (lacking the chromosomal copy of thyA) on mineral glucose medium in the absence of thymidine (14, 15). Three of the 64 plasmid-borne thyA alleles restored growth. These had one of three codons-UGU, UGC, or UGA. The growth responses of the UGU and UGC alleles were expected, as these code for cysteine.
# Shallow growth was reproducibly observed on L-cysteine gradient plates (18) for the missense alleles having any of the eight codons AUN and GUN alone. […]
# tRNA^Val [3] = test: Misacylation of tRNAVal with cysteine; type: biochemical, E. coli
# Excerpt: The T222P mutant enzyme was, therefore, expressed and partially purified so that it could be directly assayed for the ability to misacylate tRNA^Val.
# [^3H]Thr-tRNAval = Deacylation of mischarged Thr-tRNAVal by ValRS enzymes; type: biochemical, E. coli; settings: 2 nM enzyme, room temperature
# Protocol: FIG. 5B: Histogram representation of the inhibition zone diameters of DvalS::kanR strains harboring each of the ValRS editing mutants on plasmid in response to exogenous Abu. Effects range from mild to severe. Histogram representation of the percentage of mischarged Thr-tRNAVal remaining after incubation with 2 nM enzyme for 15 minutes at room temperature. Both show a distinct range in the severity of editing defects caused by these point mutations. Taken together this illustrates a correlation between the ability of the mutant enzyme to deacylate mischarged amino acids from tRNAVal in vitro and the degree of in vivo toxicity.
# (§3) Misacylation of Thr onto tRNAval was performed in the same conditions except 5.86 μM [^3H]Thr was substituted forVal in the reaction. To test deacylation rates for these enzymes it was necessary to generate [^3H]Thr-tRNAval. […] Enzyme was incubated with 2.5 μM tRNAval and 45 uM [^3H]Thr, incubated at 37 C. for 45 minutes, extracted twice in phenol:chloroform, and ethanol precipitated. Pellet was dissolved in 100 μL sterile H2O and scintillation counting was used to determine the success of the reaction. Deacylation reactions, done in triplicate for each enzyme, were performed in 155 mM Tris-HCl (pH 7.5), 100 μg/ml BSA, 10 mM MgCl2. At room temperature 2 nM enzyme was combined with [^3H]Thr-tRNAval, at 3, 6, 9, 16, and 30 minutes aliquots (9 μL) of the reaction mixture were precipitated with tricholoracetic acid, and the amount of misaminoacylated [^3H]Thr-tRNAval remaining in the sample was determined by scintillation counting. A no enzyme control reaction was included to provide reference point.
# tRNA^Val [4] = test: Aminoacylation of tRNAVal with Val; type: biochemical, E. coli; settings: pH 7.5, 37° C.
# Protocol: (§4) FIG. 2B: A graph showing misaminoacylation of tRNA^Val with Thr by the T222P mutant enzyme at pH 7.5 and 37° C. The wild-type (WT) and mutant alleles were cloned under the control of a PBAD promoter (30). The enzymes were partially purified from a laboratory strain lacking the chromosomal copy of the valS gene (ΔvalS::kan+). The purification and aminoacylation procedures were adapted from Hendrickson et al. (31). (Main panel) Misaminoacylation of tRNA^Val with Thr by the two enzymes. (Inset) Aminoacylation of tRNA^Val with Val by the two enzymes.
# (§5) Aminoaclyation Assay, Misacylation, and Deacylation: Aminoacylation assays were performed at 37 C. in a 100 uL volume containing buffer (20 mM HEPES, 0.1 mM EDTA disodium salt, 0.15M NH4Cl, 10 ug/mL BSA pH 7.5), […] MgCl2, 0.7 μM [^3H]Val, 20 μM cold Val, 2 μM tRNAval (Sigma) and 20 nM ValRS enzyme (adapted from Hendrickson et al. 2000). Aliquots (10 μL) of the reaction mixture were precipitated with tricholoracetic acid, and the level of aminoacylation of the tRNA was determined by scintillation counting.
# tRNA^Val [5] = test: Misacylation of tRNAVal with Thr; type: biochemical, E. coli; settings: pH 7.5, 37° C.
# Protocol: as §4, §5, §3
molecule,measurement,setting,value
"NC(=O)SC[C@H](N)C(=O)O [Scc, S-carbamoyl-cysteine]",concentration giving suppression of the thymidine auxotrophy,strain β5520,above 1 mM
C[C@@H](O)[C@H](N)C(=O)O [L-threonine],sensitivity of growth to exogenous L-threonine,parent strain β5419,insensitive
same,sensitivity of growth to exogenous L-threonine,[1],high sensitivity
N[C@@H](CS)C(=O)O [L-cysteine],suppression of thyA:Val146 alleles,[2],weak
"T222P (protein, UniProt P07118 1-951, looked up, variant T222P) Valine--tRNA ligase: MEKTYNPQDIEQPLYEHWEKQGYFKPNGDESQESFCIMIPPPNVTGSLHMGHAFQQTIMDTMIRYQRMQGKNTLWQVGTDHAGIATQMVVERKIAAEEGKTRHDYGREAFIDKIWEWKAESGGTITRQMRRLGNSVDWERERFTMDEGLSNAVKEVFVRLYKEDLIYRGKRLVNWDPKLRTAISDLEVENRESKGSMWHIRYPLADGAKTADGKDYLVVATPRPETLLGDTGVAVNPEDPRYKDLIGKYVILPLVNRRIPIVGDEHADMEKGTGCVKITPAHDFNDYEVGKRHALPMINILTFDGDIRESAQVFDTKGNESDVYSSEIPAEFQKLERFAARKAVVAAVDALGLLEEIKPHDLTVPYGDRGGVVIEPMLTDQWYVRADVLAKPAVEAVENGDIQFVPKQYENMYFSWMRDIQDWCISRQLWWGHRIPAWYDEAGNVYVGRNEDEVRKENNLGADVVLRQDEDVLDTWFSSALWTFSTLGWPENTDALRQFHPTSVMVSGFDIIFFWIARMIMMTMHFIKDENGKPQVPFHTVYMTGLIRDDEGQKMSKSKGNVIDPLDMVDGISLPELLEKRTGNMMQPQLADKIRKRTEKQFPNGIEPHGTDALRFTLAALASTGRDINWDMKRLEGYRNFCNKLWNASRFVLMNTEGQDCGFNGGEMTLSLADRWILAEFNQTIKAYREALDSFRFDIAAGILYEFTWNQFCDWYLELTKPVMNGGTEAELRGTRHTLVTVLEGLLRLAHPIIPFITETIWQRVKVLCGITADTIMLQPFPQYDASQVDEAALADTEWLKQAIVAVRNIRAEMNIAPGKPLELLLRGCSADAERRVNENRGFLQTLARLESITVLPADDKGPVSVTKIIDGAELLIPMAGLINKEDELARLAKEVAKIEGEISRIENKLANEGFVARAPEAVIAKEREKLEGYAEAKAKLIEQQAVIAAL",misacylation of tRNA^Val with cysteine,tRNA^Val [3],catalyzed only by the mutant enzyme
same,deacylation of Thr-tRNA^Val in vitro,[^3H]Thr-tRNAval,most severe defects
same,activity for charging tRNA^Val with valine,tRNA^Val [4],same activity as the wild-type enzyme
same,misacylation of tRNA^Val with Thr,tRNA^Val [5],high levels of mischarged Thr-tRNA^Val; also recorded: misacylated tRNA^Val with Thr
"V276A: ValRS of E. coli with single substitution V276A in the editing domain (protein, UniProt P07118 1-951, looked up, variant V276A) Valine--tRNA ligase: MEKTYNPQDIEQPLYEHWEKQGYFKPNGDESQESFCIMIPPPNVTGSLHMGHAFQQTIMDTMIRYQRMQGKNTLWQVGTDHAGIATQMVVERKIAAEEGKTRHDYGREAFIDKIWEWKAESGGTITRQMRRLGNSVDWERERFTMDEGLSNAVKEVFVRLYKEDLIYRGKRLVNWDPKLRTAISDLEVENRESKGSMWHIRYPLADGAKTADGKDYLVVATTRPETLLGDTGVAVNPEDPRYKDLIGKYVILPLVNRRIPIVGDEHADMEKGTGCAKITPAHDFNDYEVGKRHALPMINILTFDGDIRESAQVFDTKGNESDVYSSEIPAEFQKLERFAARKAVVAAVDALGLLEEIKPHDLTVPYGDRGGVVIEPMLTDQWYVRADVLAKPAVEAVENGDIQFVPKQYENMYFSWMRDIQDWCISRQLWWGHRIPAWYDEAGNVYVGRNEDEVRKENNLGADVVLRQDEDVLDTWFSSALWTFSTLGWPENTDALRQFHPTSVMVSGFDIIFFWIARMIMMTMHFIKDENGKPQVPFHTVYMTGLIRDDEGQKMSKSKGNVIDPLDMVDGISLPELLEKRTGNMMQPQLADKIRKRTEKQFPNGIEPHGTDALRFTLAALASTGRDINWDMKRLEGYRNFCNKLWNASRFVLMNTEGQDCGFNGGEMTLSLADRWILAEFNQTIKAYREALDSFRFDIAAGILYEFTWNQFCDWYLELTKPVMNGGTEAELRGTRHTLVTVLEGLLRLAHPIIPFITETIWQRVKVLCGITADTIMLQPFPQYDASQVDEAALADTEWLKQAIVAVRNIRAEMNIAPGKPLELLLRGCSADAERRVNENRGFLQTLARLESITVLPADDKGPVSVTKIIDGAELLIPMAGLINKEDELARLAKEVAKIEGEISRIENKLANEGFVARAPEAVIAKEREKLEGYAEAKAKLIEQQAVIAAL",deacylation of Thr-tRNA^Val in vitro,[^3H]Thr-tRNAval,closer to wild-type ValRS
same,misacylation of tRNA^Val with Thr,tRNA^Val [5],low levels of mischarging
